{"source": "patent US12559745B2", "about": "“Methods and compositions for linking RNA stem loops” (THE REGENTS OF THE UNIVERSITY OF CALIFORNIA, priority 2020, dated 2026)", "molecules": {"B1": {"name": "sgRNA-2: sgRNA with 17-nt Tag stem loop substituted for the tetra loop, SEQ ID NO:10 (nucleic acid)", "guide": "NNNNNNNNNNNNNNNNNNNNGTTTTAGAGCTAGCAGACTGTAAATCTGCTAGCAAGTTAAAATAAGGCTAGTCCGTTATCAACTTGAAAAAGTGGCACCGAGTCGGTGC", "modifications": "listed as DNA, chemistry not given here"}, "B2": {"name": "sgRNA-4: sgRNA with 17-nt Tag stem loop substituted for stem loop 2, SEQ ID NO:12 (nucleic acid)", "guide": "NNNNNNNNNNNNNNNNNNNNGTTTTAGAGCTAGAAATAGCAAGTTAAAATAAGGCTAGTCCGTTATCAACTTGCAGACTGTAAATCTGCAAGTGGCACCGAGTCGGTGC", "modifications": "listed as DNA, chemistry not given here"}, "B3": {"name": "sgRNA-7: sgRNA with two Tag sequences inserted at both the tetraloop and stem loop 2, SEQ ID NO:15 (nucleic acid)", "guide": "NNNNNNNNNNNNNNNNNNNNGTTTTAGAGCTAGCAGACTGTAAATCTGCTAGCAAGTTAAAATAAGGCTAGTCCGTTATCAACTTGCAGACTGTAAATCTGCAAGTGGCACCGAGTCGGTGC", "modifications": "listed as DNA, chemistry not given here"}, "B4": {"name": "sgRNA-1: sgRNA with 17-nt Tag inserted at the 5′-end, SEQ ID NO:9 (nucleic acid)", "guide": "GCAGACTGTAAATCTGCTTTTNNNNNNNNNNNNNNNNNNNNGTTTTAGAGCTAGAAATAGCAAGTTAAAATAAGGCTAGTCCGTTATCAACTTGAAAAAGTGGCACCGAGTCGGTGC", "modifications": "listed as DNA, chemistry not given here"}, "B5": {"name": "sgRNA-3: sgRNA with 17-nt Tag stem loop substituted for stem loop 1, SEQ ID NO:11 (nucleic acid)", "guide": "NNNNNNNNNNNNNNNNNNNNGTTTTAGAGCTAGAAATAGCAAGTTAAAATAAGGCGCAGACTGTAAATCTGCGTCCGTTATCAACTTGAAAAAGTGGCACCGAGTCGGTGC", "modifications": "listed as DNA, chemistry not given here"}, "B6": {"name": "sgRNA-5: sgRNA with 17-nt Tag stem loop substituted for stem loop 3, SEQ ID NO:13 (nucleic acid)", "guide": "NNNNNNNNNNNNNNNNNNNNGTTTTAGAGCTAGAAATAGCAAGTTAAAATAAGGCTAGTCCGTTATCAACTTGAAAAAGTGGCACCGAGCAGACTGTAAATCTGCTCGGTGC", "modifications": "listed as DNA, chemistry not given here"}, "B7": {"name": "sgRNA-9: sgRNA-7 with Tag stems truncated by 4 base pairs, SEQ ID NO:17; targets DYRK1A (nucleic acid)", "guide": "NNNNNNNNNNNNNNNNNNNNGTTTTAGAGCTAACTGTAAATTAGCAAGTTAAAATAAGGCTAGTCCGTTATCAACTTACTGTAAATAAGTGGCACCGAGTCGGTGC", "modifications": "chemistry not given here", "notes": "targets DYRK1A"}, "B8": {"name": "wt-sgRNA: wild-type single-guide RNA, SEQ ID NO:8 (nucleic acid)", "guide": "CTAATACGACTCACTATANNNNNNNNNNNNNNNNNNNNGTTTTAGAGCTAGAAATAGCAAGTTAAAATAAGGCTAGTCCGTTATCAACTTGAAAAAGTGGCACCGAGTCGGTGCTTTTTT", "modifications": "target site or template, no part of the molecule; listed as DNA, chemistry not given here"}}, "key": {"[1]": {"assay": "In vitro photo-cleavage (uncaging) assay, LED irradiation followed by denaturing PAGE", "type": "physicochemical"}, "[2]": {"test_system": "60 bp DNA substrate containing the sgRNA-9 target sequence", "assay": "In vitro binding assay, Cas9-sgRNA-DNA ternary complex formation (native PAGE)", "details": "pre-formed RNP plus 20 nM DNA substrate, 37° C., 90 seconds; 5% native TBE-PAGE"}, "[3]": {"test_system": "DYRK1A genome locus", "assay": "CRISPR-Cas9 gene editing in Cas9-expressing HEK-293 cells, INDEL rate by Sanger sequencing / ICE tool", "type": "cell-based", "details": "for gene editing activity (INDEL rate) of unmodified sgRNA: unmodified (linear) sgRNA with Tag sequence(s), transfected into Cas9-expressing HEK-293 cells, compared with wild-type sgRNA", "source_text": "We asked whether RNA-CLAMP could be used to control CRISPR-Cas9 editing via cyclization of the sgRNA. The sgRNA is highly structured when in complex with dCas9 and target DNA, forming three stem loops and one tetraloop, with some of the stem loops being tolerant to mutations.^[18] A sgRNA contains four stem-loops and two free ends (FIGS. 3A and 3B). We screened the 17-nt Tag recognition sequence (GCAGACUGUAAAUCUGC) (SEQ ID NO:1) at all 6 potential labeling sites within the sgRNA: insertion at the 5′-end (sgRNA-1) or 3′-end (sgRNA-6) and substituting the 17-nt Tag stem loop for either the tetra loop (sgRNA-2), stem loop 1 (sgRNA-3), stem loop 2 (sgRNA-4) or stem loop 3 (sgRNA-5) (FIG. 12). All the sgRNAs target the DYRK1A genome locus.^[32] To screen for activity, we transiently transfected the sgRNAs into HEK-293 cells stably expressing Cas9 protein. Three days after transfection, genomic DNA was harvested and the sgRNA targeted region was amplified by PCR. Sanger sequencing results were analyzed using the ICE tool to determine the INDEL rate, which is representative of the gene editing efficiency of the sgRNA.^[33]\nTo obtain optimal gene editing efficiency, we examined different Cas9 delivery approaches, including transfection or electroporation of Cas9 vector or mRNA, electroporation of Cas9-sgRNA RNP complex and sequential transfection of Cas9-mRNA and sgRNA. The gene editing efficiency varies from 20% INDEL to 80% INDEL with different delivery strategies. We constructed an engineered mammalian single-colony HEK-293 cell line that stably expresses Cas9 enzyme using the lentiviral approach. To quantify the activity of sgRNA, we delivered sgRNA1 to sgRNA6 into the HEK-293-Cas9 cells using lipofectamine RNAiMAX. One day after transfection, culturing medium was exchanged with fresh full-growth medium (DMEM with 10% FBS). Three days after transfection, genomic DNA was extracted from the cells, following by PCR amplification of the sgRNA targeted region. The PCR amplified DNA fragments were further analyzed by either the T7E1 nuclease digestion assay or by Sanger sequencing to quantify gene knockouts efficiency of the targeted region.^25,26 […]\nGene editing experiments were performed following previously reported protocols.^[2] For gene editing experiments using HEK-293-Cas9 cell line, 250 ng sgRNA and 0.5 μL Lipofectamine RNAiMAX were used to form the Lipo-RNA complex. The formed complex was added with 150 μL DMEM (10% FBS) containing 40K HEK-293-Cas9 cells. The transfection was performed in a 96-well plate format. 24 hours after transfection, cell medium was changed to complete DMEM medium. At day 4, genomic DNA was extracted using 80 μL QuickExtract™ DNA Extraction Solution (Lucigen, catalog number: QE09050). Following the manufacturer's protocol, the extraction solution was heated at 65° C. for 15 minutes and then at 95° C. for another 15 minutes. The resulting solution was diluted using water at a 1:10 ratio. The diluted product was directly used as a template for PCR amplification of the genomic region. For PCR amplification of the genomic region, Q5 HOTSTART HIFI DNA polymerase 2× master mix was used following the manufacturer's protocol without further optimization. The primers used for amplifying the DYRK1A and GRIN2B genome locus are listed below.\nCrude PCR products were column purified using a Zymo DNA purification kit. The purified PCR amplicon was analyzed by Sanger sequencing to estimate INDEL % using the ICE tool.^[3] The wt-sgRNA gene editing INDEL % was usually around 70-80% following this protocol."}, "[4]": {"target": "T1, Cas9 protein (Streptococcus pyogenes serotype M1, UniProt Q99ZW2)", "T1 construct": "purchased NEB M0646T", "assay": "In vitro binding assay, Cas9-sgRNA RNP formation (gel shift, native PAGE)", "details": "200 nM Cas9, 200 nM sgRNA"}, "[5]": {"test_system": "HEK-293 cells", "assay": "Gene editing in HEK-293 wild-type cell line with Cas9 mRNA transfected one day before sgRNA", "type": "cell-based", "details": "HEK-293 wild-type cells, Cas9 mRNA transfection; usual value", "experimental": "For gene editing experiments performed using a HEK-293 wild-type cell line, mRNA encoding the Cas9 protein (Trilink, catalog number L-7206-20) was transfected into HEK-293 cells one day prior to sgRNA transfection. For mRNA transfection, Lipo-RNA complex was formed by using 500 ng mRNA, 0.9 μL Lipofectamine RNAiMAX in 50 μL total volume, combined with 150 μL DMEM complete medium containing 40K HEK-293 cells. At day 2, sgRNA transfection was performed following the protocol described in the previous section. The wt-sgRNA gene editing INDEL % was usually around 40-50% following this protocol."}}, "note": "Where “and” joins values, the source holds several entries; their conditions need not be identical. Equal entries are not always repeated. Entries after “also recorded” stand apart in the source; their conditions may differ.", "data": [{"molecule": "CCN(CC)c1ccc2c(C(CCCn3cc(COCCC(=O)NCCCCCCNCc4c[nH]c5nc(N)[nH]c(=O)c45)nn3)OC(=O)NCCCCCCNCc3c[nH]c4nc(N)[nH]c(=O)c34)cc(=O)oc2c1", "note": "(stereo not drawn) [preQ1-DEACM-preQ1]", "values": [{"measurement": "wavelength of light that photo-cleaves the linker", "setting": "[1]", "result": "405-456 nm"}]}, {"molecule": "COc1cc(C(C)OC(=O)NCCCCCCNCc2c[nH]c3nc(N)[nH]c(=O)c23)c([N+](=O)[O-])cc1OCCCC(=O)NCCOCCOCCOCCOCc1cn(CC(=O)NCCCCCCNCc2c[nH]c3nc(N)[nH]c(=O)c23)nn1", "note": "(stereo not drawn) [preQ1-NB-preQ1]", "values": [{"measurement": "wavelength of light that photo-cleaves the linker", "setting": "[1]", "result": "356-390 nm and 390 nm"}]}, {"molecule": "sgRNA-12: sgRNA targeting the sequence between the mCherry and GFP genes of the surrogate reporter, SEQ ID NO:40 (guide GTTCAGGGCTTGACCAACAC; listed as DNA, chemistry not fully specified)", "values": [{"measurement": "formation of Cas9-sgRNA-DNA ternary complex", "setting": "[2]", "result": "no Cas9-sgRNA-DNA complex was observed"}]}, {"molecule": "B1", "values": [{"measurement": "gene editing activity (INDEL rate) of unmodified sgRNA", "setting": "[3]", "result": "wild-type level gene editing activity; also recorded: retained wild-type level activity"}]}, {"molecule": "B2", "values": [{"measurement": "gene editing activity (INDEL rate) of unmodified sgRNA", "setting": "[3]", "result": "wild-type level gene editing activity; also recorded: retained wild-type level activity"}]}, {"molecule": "B3", "values": [{"measurement": "integrity of unlabeled sgRNA under 456 nm irradiation", "setting": "[1]; 456 nm LED, 3 minutes", "result": "harmless to the integrity"}, {"measurement": "INDELs", "setting": "[3]; HEK-293 cells, clamped with preQ1-PEG10-preQ1 and gel purified, versus unmodified (linear) form", "result": 80.7, "unit": "%"}, {"measurement": "gene editing activity (INDEL rate) of unmodified sgRNA", "setting": "[3]", "result": "wild-type level gene editing activity; also recorded: did not compromise gene editing activity"}]}, {"molecule": "B4", "values": [{"measurement": "gene editing activity (INDEL rate) of unmodified sgRNA", "setting": "[3]", "result": "significantly reduced activity"}]}, {"molecule": "B5", "values": [{"measurement": "gene editing activity (INDEL rate) of unmodified sgRNA", "setting": "[3]", "result": "significantly reduced activity"}]}, {"molecule": "B6", "values": [{"measurement": "gene editing activity (INDEL rate) of unmodified sgRNA", "setting": "[3]", "result": "significantly reduced activity"}]}, {"molecule": "B7", "values": [{"measurement": "formation of Cas9-sgRNA-DNA ternary complex", "setting": "[2]", "result": "observed the formation of the Cas9-sgRNA-DNA ternary complex; also recorded: detected in lane 5"}, {"measurement": "formation of Cas9-sgRNA RNP", "setting": "[4]", "result": "observed; also recorded: detected in lane 4"}]}, {"molecule": "B8", "values": [{"measurement": "gene editing INDEL %", "setting": "[3]; HEK-293-Cas9 cell line protocol, usual value", "result": "70-80%"}, {"measurement": "gene editing INDEL %", "setting": "[5]", "result": "40-50%"}]}]}
